Measured values taken from paper PMC12796453.

Tests used:
Test in all cases: SPR
[1] = biological target: bifucosylated A330W E269M KiH Rituximab IgG1 (human)
[2] = biological target: monoglycosylated bifucosylated IgG (human)
[3] = biological target: afucosylated agalactosylated KiH-A330W anti-DENV2 E protein IgG1 (C10) (human)
[4] = biological target: bifucosylated A330W E269I KiH Rituximab IgG1 (human)
[5] = biological target: monofucosylated A330W E269M KiH Rituximab IgG1 (human)
[6] = biological target: afucosylated A330W E269I KiH Rituximab IgG1 (human)
[7] = biological target: monoglycosylated monofucosylated IgG (human)
[8] = biological target: monofucosylated A330W E269I KiH Rituximab IgG1 (human)

Substance “soluble human FcγRIIIA-F158 ectodomain (from UniProt P08637 17-208) (receptor)” has a Kd [1] of 1480 nM, a Kd [2] of 1640 nM and a Kd [3] of 39 nM. The Kd [4] was 2070 nM, the Kd [5] was 119 nM and the Kd [6] was 159 nM. For the same substance, the Kd [7] was 554 nM and the Kd [8] was 698 nM.
